Assay [1] addresses T1, recombinant yeast MDH1, fluorescently labeled (yeast (Saccharomyces cerevisiae), UniProt P17505 18-334, labeled with Protein Labeling Kit RED-NHS 2nd Generation (NanoTemper)).
T1 chain: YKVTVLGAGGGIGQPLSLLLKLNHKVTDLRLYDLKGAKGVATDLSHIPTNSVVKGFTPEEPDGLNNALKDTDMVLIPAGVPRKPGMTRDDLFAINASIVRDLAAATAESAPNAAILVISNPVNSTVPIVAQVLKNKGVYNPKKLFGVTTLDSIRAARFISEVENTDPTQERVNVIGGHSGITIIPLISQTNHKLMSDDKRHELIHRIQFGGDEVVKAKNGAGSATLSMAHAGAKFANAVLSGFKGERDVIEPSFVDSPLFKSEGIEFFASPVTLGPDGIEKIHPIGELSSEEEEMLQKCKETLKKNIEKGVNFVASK
Kind of assay: MST; control (no metabolite).

The target in assay [2] is T1, recombinant yeast MDH1, fluorescently …. Kind of assay: MST; pH 6.8.
Assay [3] shares this target. Kind of assay: MST; 10 mM malate.
Assay [4] has the same target. The assay can be described thus: MST; 10 mM fumarate.
Assay [5] deals with T2, recombinant yeast CIT1 (yeast (Saccharomyces cerevisiae), UniProt P00890 38-479).
T2 construct: citrate synthase CIT1, mitochondrial, yeast (Saccharomyces cerevisiae); also called recombinant CIT1; source: recombinant; produced according to the Supplementary Methods
T2 sequence (looked up): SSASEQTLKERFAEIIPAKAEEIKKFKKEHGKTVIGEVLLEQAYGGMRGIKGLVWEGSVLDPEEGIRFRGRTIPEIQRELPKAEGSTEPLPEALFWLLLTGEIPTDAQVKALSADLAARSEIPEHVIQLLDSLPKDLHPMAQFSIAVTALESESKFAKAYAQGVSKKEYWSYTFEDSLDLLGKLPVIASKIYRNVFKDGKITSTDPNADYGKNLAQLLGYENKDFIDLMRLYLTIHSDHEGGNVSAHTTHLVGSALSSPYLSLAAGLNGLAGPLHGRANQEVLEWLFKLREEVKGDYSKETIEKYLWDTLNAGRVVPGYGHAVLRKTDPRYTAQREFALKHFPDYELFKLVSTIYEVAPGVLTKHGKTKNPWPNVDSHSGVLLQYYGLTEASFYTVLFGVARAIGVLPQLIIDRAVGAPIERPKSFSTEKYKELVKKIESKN
The assay can be described thus: MST; labeled MDH1 as target, CIT1 titrated (two-fold dilutions of 80 μM, 16 concentrations), Monolith NT.115, room temperature; buffer pH 7.2. The note with it: both partners purified.

Assay [6] concerns the target T2, recombinant yeast CIT1. The assay can be described thus: MST; labeled MDH1 as target, CIT1 titrated (two-fold dilutions of 80 μM, 16 concentrations), Monolith NT.115, room temperature; buffer pH 6.0. The note with it: both partners purified.
Assay [7] has as its target T2, recombinant yeast CIT1. Kind of assay: MST; labeled MDH1 as target, CIT1 titrated (two-fold dilutions of 80 μM, 16 concentrations), Monolith NT.115, room temperature; buffer pH 6.4. The note with it: both partners purified.

B1: recombinant yeast CIT1 (enzyme)
chain: T2 sequence (looked up)
Usually Kd stands for a measure of binding affinity in units of concentration. B1: the Kd in assay [1] came out at 6070 nM; in assay [2], 2720 nM; in assay [3], 367 nM; in assay [4], 288 nM.

B2: recombinant yeast MDH1, fluorescently labeled (enzyme, yeast (Saccharomyces cerevisiae), UniProt P17505 18-334, looked up)
chain: T1 chain
modifications: labeled with Protein Labeling Kit RED-NHS 2nd Generation (NanoTemper)
notes: malate dehydrogenase MDH1, mitochondrial, yeast (Saccharomyces cerevisiae); also called recombinant MDH1; labeled MDH1; source: recombinant; produced according to the Supplementary Methods
Turning to B2, the Kd stood at 3480 nM in assay [5], 33 nM in assay [6] and 223 nM in assay [7].

The record behind these values is paper doi:10.1101/2025.06.16.659985, “Dynamic assembly of malate dehydrogenase-citrate synthase multienzyme complex in the mitochondria” (bioRxiv, 2025).
